# According to article PMC4126857:
# Key:
# [1] = molecular target: Drosophila Plk4 cryptic polo box (DmPlk4 CPB), aa 383-601 (Drosophila) (UniProt O97143); assay: MST
# [2] = molecular target: ZYG-1 cryptic polo box (CPB), aa 338-564 (C. elegans) (UniProt Q9GT24); assay: MST
# ZYG-1 cryptic polo box (CPB), aa 338-564 (C. elegans), sequence (Q9GT24 338-564): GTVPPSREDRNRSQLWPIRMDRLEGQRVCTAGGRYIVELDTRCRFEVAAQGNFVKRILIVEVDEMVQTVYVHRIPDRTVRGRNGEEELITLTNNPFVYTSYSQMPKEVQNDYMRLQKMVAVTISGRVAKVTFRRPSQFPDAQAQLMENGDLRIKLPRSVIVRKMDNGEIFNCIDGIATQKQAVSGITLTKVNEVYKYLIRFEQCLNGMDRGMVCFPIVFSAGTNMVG
# Drosophila Plk4 cryptic polo box (DmPlk4 CPB), aa 383-601 (Drosophila), sequence (O97143 383-601): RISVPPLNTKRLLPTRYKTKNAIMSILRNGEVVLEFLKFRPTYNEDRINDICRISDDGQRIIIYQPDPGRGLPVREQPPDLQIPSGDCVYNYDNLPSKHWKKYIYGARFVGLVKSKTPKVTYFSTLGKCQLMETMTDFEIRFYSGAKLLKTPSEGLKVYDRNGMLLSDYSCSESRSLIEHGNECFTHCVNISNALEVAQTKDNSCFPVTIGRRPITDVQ
Kd [1],Kd [2],Substance
720 nM,–,"MmAsl acidic region (MmAsl AR), MST ligand (from UniProt A2AUM9 1-1736) (domain or fragment)"
530 nM,5.17 µM,"MmSPD-2 acidic region (MmSPD-2 AR), MST ligand (from UniProt E9Q4Y4 1-2514) (domain or fragment)"
